Earlier results on 1 substance are cited in publication PMC8555654.

This series concerns the target PlexA2 (Mus musculus) (UniProt P70207).

Chain of PlexA2 (Mus musculus) (P70207 35-1237): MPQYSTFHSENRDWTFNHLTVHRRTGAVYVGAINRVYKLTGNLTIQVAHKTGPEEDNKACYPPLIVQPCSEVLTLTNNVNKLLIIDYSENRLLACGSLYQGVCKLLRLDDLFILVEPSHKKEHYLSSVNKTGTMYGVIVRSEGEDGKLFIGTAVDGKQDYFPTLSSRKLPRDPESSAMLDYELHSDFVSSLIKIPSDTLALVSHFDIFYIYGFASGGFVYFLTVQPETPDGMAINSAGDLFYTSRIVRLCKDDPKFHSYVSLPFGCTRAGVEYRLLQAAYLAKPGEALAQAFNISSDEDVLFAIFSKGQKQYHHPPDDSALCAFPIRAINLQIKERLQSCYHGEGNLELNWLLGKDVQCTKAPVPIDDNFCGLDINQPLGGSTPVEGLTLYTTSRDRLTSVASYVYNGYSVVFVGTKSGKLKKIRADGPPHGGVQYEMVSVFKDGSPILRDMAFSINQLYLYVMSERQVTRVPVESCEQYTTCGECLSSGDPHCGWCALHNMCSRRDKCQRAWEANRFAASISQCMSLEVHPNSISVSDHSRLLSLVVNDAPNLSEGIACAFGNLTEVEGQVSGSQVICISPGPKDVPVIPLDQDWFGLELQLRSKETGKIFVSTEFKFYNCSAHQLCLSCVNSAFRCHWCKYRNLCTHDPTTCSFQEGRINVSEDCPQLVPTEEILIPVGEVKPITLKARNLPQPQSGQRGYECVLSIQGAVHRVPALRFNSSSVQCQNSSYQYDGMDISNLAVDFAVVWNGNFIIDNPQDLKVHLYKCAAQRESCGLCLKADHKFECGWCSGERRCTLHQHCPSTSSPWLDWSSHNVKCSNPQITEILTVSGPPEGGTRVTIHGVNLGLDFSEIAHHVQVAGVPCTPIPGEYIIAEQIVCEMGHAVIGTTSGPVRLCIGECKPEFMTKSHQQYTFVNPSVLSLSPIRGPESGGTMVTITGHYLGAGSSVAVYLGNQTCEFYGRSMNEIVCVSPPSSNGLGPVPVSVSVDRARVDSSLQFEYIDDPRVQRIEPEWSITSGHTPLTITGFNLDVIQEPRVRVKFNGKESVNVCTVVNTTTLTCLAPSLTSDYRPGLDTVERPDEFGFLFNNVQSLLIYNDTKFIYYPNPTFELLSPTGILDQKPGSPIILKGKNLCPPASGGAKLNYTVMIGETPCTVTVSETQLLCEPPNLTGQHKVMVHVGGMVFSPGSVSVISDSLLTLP

As a reminder, the Kd is the constant that tells how readily two partners part at equilibrium. Take Npn1 (from UniProt P97333): the equilibrium dissociation constant (Kd) is 66 µM.
